Assay results taken from patent US20080201790A1, “Method and product for regulating cell responsiveness to external signals” (priority 1993, published 2008).

Legend:
GST-Ras^V12 = test: Binding of COS cell-expressed MEKK1 proteins to GST-Ras^V12 agarose; settings: COS cell lysates, immunoblot
Source text: COS cells were transiently transfected by the DEAE-dextran protocol as generally described in Example 3. Cos cells were transfected with: (1) p-MEKK1 containing a nucleic acid molecule encoding MEKK1 as described in Lange-Carter et al. (Science 260:315-319, […]); (2) p-MEKKNH2 containing a nucleic acid molecule that encodes a 858 base pair Pvull(682)-Ncol(1541) restriction digest fragment of the amino terminus of MEKK1 ligated into pCMV5; (3) p-MEKKCOOH containing a nucleic acid molecule that encodes a 1435 base pair Ncol(1541)-Sspl(2976) restriction digest fragment that includes the entire kinase domain of MEKK1 ligated into pCMV5; (4) pCMV5 without insert; or (5) p-C4Raf containing a nucleic acid molecule that encodes the amino terminus of Raf-1 ligated into pCMV5. COS cells expressing the various MEKK1 proteins were […] COS cells expressing the various MEKK1 proteins were lysed in EB (1% Triton X-100, 10 mM Tris HCl [pH 7.4], 5 mM EDTA, 50 mM NaCl, 50 mM NaF, 0.1% bovine serum albumin, 0.2 U/ml aprotinin, 1 mM phenylmethylsulfonyl fluoride and 2 mM Na3 VO4). The lysates were separated into two equal parts for separate binding reactions. Half of the lysate was incubated with GST agarose (1.5 μg) while half of the lysate was incubated with GST-Ras^V12 agarose (1.5 μg) (purchased from UBI) for 1 hr at 4° C. The GST-Ras^V12 was preincubated at 30° C. for 30 min with 1 mM nucleotide (GDP or GTPγS). The nucleotide binding reaction was stopped by adding MgCl2 to a final concentration of 20 mM. After the 1 hr binding reaction the agarose beads were pelleted at 2000 rpm for 2 min and washed 3 times with PBS+1.0% Triton X-100. The washed agarose beads were boiled in Laemmli SDS sample buffer and the proteins resolved by SDS polyacrylamide gel electrophoresis. Proteins were transferred onto nitrocellulose for immunoblotting with antibodies specific for an NH2 terminal fusion protein (described in Example 1) or a COOH terminal peptide (described in Example 1).

Gal4/Myc = test: Gal4-TK-luciferase transactivation analysis, Gal4/Myc; format: cell-based; settings: IPTG-induced stable expression in Swiss 3T3 cells
Source text: (§1) Swiss 3T3 cells were transfected using calcium phosphate or lipofectamine with the reporter plasmid Gal4-TK-luciferase, which contains four Gal4 binding sites (Sadowski, I., et al. (1988). Nature 335, 563-564). adjacent to a minimal thymidine kinase (TK) promoter that controls expression of luciferase, in the presence or absence of activator plasmids encoding Gal4(1-147)/Myc(7-101) (Gupta et al. (1993) Proc. Natl. Acad. Sci. USA 90:3216-3220), Gal4(1-47)/Elk-1(83-428) (Marais, et al. (1993) Cell 73:381-393) or Gal4(1-147)/c-Jun(1-233) Hibi et al. (1993) Genes & Development 7:2135-2148). Transfections included pCMV5 without a cDNA insert (basal control), pCMV5MEKKCOOH and in some experiments pCMV5BxBRaf. Cells were incubated for 24-48 hr after transfection, lysed and assayed for luciferase activity. Values were normalized to equivalent μg protein for all experiments.

REF52 cells = test: Cell morphology after microinjection of expression plasmids; format: cell-based; settings: microinjected REF52 cells
Procedure: Swiss 3T3 and REF52 cells were plated on acid-washed glass cover slips in Dulbecco's Modified Eagle's Medium (DMEM) and 10% bovine calf serum (BCS) or newborn calf serum (NCS). Cells were placed in DMEM/0.1% calf serum for overnight incubation prior to microinjection and used for injection at 50-70% confluence. Injections were performed with an Eppendorf automated microinjection system with needles pulled from glass capillaries on a vertical pipette puller (Kopf, Tujunga, Calif.). Cells were injected with pCMVβ-gal in the presence or absence of pCMV5MEKKCOOH or pCMV5BxBRaf at 20-100 ng/μl for each expression plasmid in 100 mM KC1, 5 mM NaPO4, pH 7.3. Following injection cells were placed in 1% NCS for 12-18 hr (Swiss 3T3) or 42 hr (REF52) prior to fixation with paraformaldehyde and staining. Similar results were obtained when cells were placed in 10% NCS after microinjection. Propidium iodide ([…]) was used to stain DNA. X-Gal reactions were performed for six hr.

Gal4/Elk-1 = test: Gal4-TK-luciferase transactivation analysis, Gal4/Elk-1; format: cell-based; settings: expression in Swiss 3T3 cells
Source text: as §1

B1: MEKKCOOH: a truncated activated form of MEKK1 including the entire kinase domain (protein)
chain: MAMSASQDALPIVPQLQVENGEDIIIIQQDTPETLPGHTKAKQPYREDAEWLKGQQIGLGAFSSCYQAQDVGTGTLMAVKQVTYVRNTSSEQEEVVEALREEIRMMGHLNHPNIIRMLGATCEKSNYNLFIEWMAGGSVAHLLSKYGAFKESVVINYTEQLLRGLSYLHENQIIHRDVKGANLLIDSTGQRLRIADFGAAARLASKGTGAGEFQGQLLGTIAFMAPEVLRGQQYGRSCDVWSVGCAIIEMACAKPPWNAEKHSNHLALIFKIASATTAPSIPSHLSPGLRDVAVRCLELQPQDRPPSRELLKHPVFRTTW
- binding to GST-Ras^V12 (in words) (GST-Ras^V12): bound to GST-Ras^V12 in a GTP dependent manner
- transactivation function of c-Myc (Gal4/Myc): markedly activated
- cytoplasmic and nuclear morphology (REF52 cells): dramatic cytoplasmic shrinkage and nuclear condensation
- transactivation function of Elk-1 (Gal4/Elk-1): markedly activated
